Patent US20250215403A1, “Compositions and Methods for Cardiac Tissue Regeneration” (Temple University - Of The Commonwealth System Of Higher …, priority 2022, published 2025)

Legend:
[1] = HPLC measurements of oxidative stress (ROS, GSH/GSSG, NADPH, NADH) in heart post-MI; format: in vivo, mouse
Protocol: ROS production in heart tissue was measured using HPLC for dihydroethidium (DHE) oxidation products (Magadum A., et al., Circulation. 2020, 141 (15): 1249-1265). Immediately after harvesting hearts, a 20 mg segment of heart tissue was cut into small pieces and incubated with DHE (100 μM) in PBS containing DTPA (100 μM) at 37° C. for 30 min. The sample was washed with PBS/DTPA, extracted with acetonitrile (500 μl) and briefly sonicated (3× 30 sec, 8W). After centrifugation (13,000×g, 10 min at 4° C.), the supernatant was collected and dried under vacuum, and pellets stored at −20° C. in the dark until analysis. Samples were resuspended in 120 μl PBS-DTPA and injected into the HPLC system. The superoxide-specific DHE oxidation product 2-hydroxyethidine (EOH) was quantified by comparison of the peak signal between samples and standard solutions under identical chromatographic conditions, and expressed as EOH/mg tissue.
The level of glutathione (GSH) in heart tissue was measured by an HPLC method with electrochemical detection, as previously described (Magadum A., et al., Circulation. 2020, 141 (15): 1249-1265). Heart samples were homogenized in a 100 mM acetate buffer (pH 5.4, containing 10 μM DTPA). A small aliquot was used to quantify total protein. The remaining sample was deproteinized with 10% TCA, centrifuged at 10,000×g for 5 min at 4° C., the supernatant filtered (0.45 μm) and stored at −80° C. Samples were injected onto a C18 column (Phenomenex C18, 3 μm, 150×4.6 mm) and eluted at 0.5 ml/min using an isocratic mobile phase solution (25 mM NaH2PO4, 1 mM 1-octane sulfonic acid, 6% acetonitrile, pH 2.6, H2O with phosphoric acid). GSH levels were quantified by comparison to standards subjected to the same HPLC conditions. Glutathione disulfide (GSSG) levels were indirectly determined by its enzymatic reduction with glutathione reductase (0.6 U/ml plus 0.2 mg/ml NADPH) for 30 min. The reaction was stopped by adding 5% TCA on ice. The GSH levels were normalized by the amount of protein. GSSG quantification was achieved by the difference between total reduced GSSG to total GSH in each sample.

PSAT1 = PSAT1 protein expression in NRVM after modRNA transfection; format: cell-based, rat; settings: in vitro modRNA transfection
cardiomyocytes (CM) = experiment: Mouse MI model: TUNEL staining of CM apoptosis; format: in vivo; settings: vs Luc modRNA
Protocol: All surgical and experimental procedures with mice were performed in accordance with protocols approved by Institutional Animal Care and Use Committees at Temple University Animal Care and Use Committee (IACUC). C57BL6 or CM-specific MADM mice (8-12-weeks-old) were anesthetized with isoflurane. MI was induced by permanent ligation of the LAD, as previously described (Garikipati, V. N. S., et al., 2019, Nature Communications, 10:4317). Briefly, the left thoracic region was shaved and sterilized. After intubation, the heart was exposed through a left thoracotomy. A suture was placed to ligate the LAD. The thoracotomy and skin were sutured closed in layers. Excess air was removed from the thoracic cavity, and the mouse was removed from ventilation when normal breathing was established. In order to determine the effect of modRNA on cardiovascular outcome after MI, modRNAs (100 μg/heart) were injected into the infarct zone immediately after LAD ligation (Magadum A., et al., Circulation. 2020, 141 (15): 1249-1265). For examination of heart histology, hearts were collected at the end of each study, quickly washed in PBS, weighed, and fixed in 4% PFA for cryo-sectioning and immunostainings. In all experiments, the surgeon was blinded to the treatment group. For assessment of heart histology, hearts were collected at the end of each study. The hearts were excised, briefly washed in PBS, perfused with perfusion buffer, weighed and fixed in 4% PFA at 4° C. overnight. The heart blocks were transverse sectioned at 6-8 μm using cryostat. The heart sections were further processed for histological evaluation using immunostaining (see below) or histological scar staining using Masson's trichrome staining kit (Sigma) according to standard procedures. Measuring the ratio of heart weight to body weight was done using a scale. This ratio was calculated as the heart tissue weight relative to the mouse total body weight in grams (g).
Mice hearts were harvested, weighed, and fixed in 4% PFA/PBS overnight on shaker and then washed with PBS for 1 hour and incubated in 30% sucrose/PBS at 4° C. for 12-18 hours. Hearts were then fixed in OCT and frozen at −80° C. (Magadum A., et al., Circulation. 2020, 141 (15): 1249-1265). Transverse heart sections (6-8 μm) were made using a cryostat. […] For immunostaining with wheat germ agglutinin (WGA) for CM size quantification, images were captured at 40× magnification, and ImageJ was used to determine the area of each cell. Quantitative analyses involved counting of multiple fields from 5-8 mouse hearts per group, and 3-4 sections/heart (˜50 cells per field assessed, for a total ˜250 cells per sample). […] BrdU positive CMs were counted in multiple fields from three independent samples per group and 3 sections/heart. […]

B1: PSAT1 modRNA: modified mRNA with N1-methylpseudouridine, transcribed in vitro, encoding phosphoserine aminotransferase 1 (ORF SEQ ID NO: 1, RNA SEQ ID NO: 2) (nucleic acid)
chain: AUGGAAGCCACCAAGCAAGUGGUUAACUUUGGGCCCGGGCCUGCCAAGCUGCCACACUCGGUAUUGUUGGAGAUCCAGAAGCAGCUACUAGACUACAGAGGACUCGGCAUCAGUGUGCUCGAAAUGAGUCACAGGUCAUCAGAUUUUGCCAAGAUUAUUGGCAAUACAGAGAAUCUUGUGAGGGAAUUGCUAGCUGUUCCCAACAACUACAAGGUGAUCUUUGUACAAGGAGGUGGGUCUGGCCAGUUCAGUGCUGUCCCCUUAAAUCUGAUUGGCCUGAAAGCUGGAAGGAGUGCUGACUACGUGGUGACCGGAGCUUGGUCAGCUAAGGCUGCGGAAGAAGCCAAGAAGUUUGGAACGGUGAACAUUGUCCACCCUAAACUUGGAAGUUACACAAAAAUUCCAGACCCAAGCACCUGGAACCUCAACCCGGACGCCUCCUAUGUAUACUUCUGUGCAAACGAGACUGUGCACGGGGUGGAGUUUGACUUCGUACCUGACGUCAAGGGAGCGGUGCUGGUCUGUGACAUGUCCUCAAACUUCUUAUCCAGGCCGGUGGAUGUUUCCAAGUUUGGUGUGAUUUUCGCUGGUGCUCAGAAGAAUGUUGGCUCUGCCGGGGUGACGGUGGUGAUUGUCCGGGAUGACCUGCUGGGGUUCUCGCUCAGAGAGUGCCCAUCAGUCCUUGACUACAAAGUGCAGGCUGGGAACAACUCUUUGUAUAACACACCUCCGUGCUUCAGCAUCUACGUCAUGGGCAUGGUCCUGGAAUGGAUCAAGAACAACGGCGGGGCCGCAGCCAUGGAGAAGCUCAGCUCCAUCAAAUCCCAAAUGAUUUAUGAGAUCAUUGAUAAUUCUCAAGGAUUUUAUGUAUGCCCAGUGGAGCGCCAGAAUAGAAGCAGGAUGAACAUCCCAUUUCGCAUUGGCAACGCCAAAGGAGACGAAGCUUUGGAAAAGCGGUUUCUUGACAAGGCGGUAGAACUCAACAUGAUCUCCUUGAAGGGGCACAGGUCAGUGGGAGGCAUUCGUGCCUCUCUGUAUAACGCUGUCACAACCGAAGACGUUGAGAAGCUGGCGGCCUUCAUGAAGAAUUUCUUGGAGAUGCAUCAGCUGUGA
modifications: N1-methylpseudouridine
[1]; heart post-MI
  GSH/GSSG ratio: significantly increased
[1]; heart two days post-MI, DHE probe
  levels of superoxide and other ROS: reduced
[1]; two days post-MI
  NADH level: increased
  NADPH level: increased
PSAT1
  PSAT1 protein expression in NRVM (onset and duration): achieved within hours of administration and lasted up to several days
Cardiomyocytes (CM); 2 days post-MI
  TUNEL+ CMs: significantly decreased
Cardiomyocytes (CM); 7 days post-MI
  TUNEL+ CMs: significantly decreased
